Consider one molecule from publication PMC6689063.

This assay addresses T1, AztC from Paracoccus denitrificans (WT PdAztC), solute binding protein of the AztABC zinc transporter (Paracoccus denitrificans PD1222) (UniProt A1B2F3).
T1 sequence: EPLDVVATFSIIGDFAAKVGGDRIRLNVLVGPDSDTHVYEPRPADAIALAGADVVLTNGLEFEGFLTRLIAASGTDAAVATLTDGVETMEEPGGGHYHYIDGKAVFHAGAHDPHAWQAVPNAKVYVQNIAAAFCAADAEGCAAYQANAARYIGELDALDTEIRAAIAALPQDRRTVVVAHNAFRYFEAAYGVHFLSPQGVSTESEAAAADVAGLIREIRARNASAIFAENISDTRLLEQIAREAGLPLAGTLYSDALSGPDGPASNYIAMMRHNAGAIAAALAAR

B1: ΔS1 PdAztD (H124A/H167A/H218A) (natural protein)
chain: QDHDHDHEDVTLYRVFVGDHEKGQVTAFDLAEPDHRWTFPTTGQVKLYSVAGGAVVAAVQSDADTVQFIRSGISFHDHGDHRDIEVGDPAAIDASLTGPRPFALVEHDGKVVLNYDQGGYAEILDGHALAEGKAEPGRFPQARAHAGFVAPLGGNWLSTVASDEKVEGDASVPRLGLQAFDAEGNPAGNLATCTGIAGEAFSGAYLAAGCKEGVLTVKAGANGSEYKLLPYPADLPQGVTTGTLLGSTGIQVFLGNYGPDGLVVIDPVDEPHYRYIKLPFRRVDFALDPAKPSTGYVLTEDGSLHRIDLLKAEIVASAKVTEPYSMDGHWNDPRPRIAMAGDEIVVTDPNAGLVRRIATEDLSERGTVPVEGKPYNIAVTGGSGVTH
Take B1: the zinc transferred to AztC after incubation of 100 μM each protein with 1 mM EDTA, anion exchange chromatography and zinc quantitation by ICP-OES (equivalent of zinc) turned out to be 1.
